# Results: paper PMC6265326, “Structure of the hyperosmolality-gated calcium-permeable channel OSCA1.2” (Nature Communications, 2018)
# B1: OSCA1.2 from Arabidopsis thaliana (AtOSCA1.2) (natural protein, UniProt Q5XEZ5 1-771, looked up)
# chain: MATLQDIGVSAGINILSAFVFFIIFAVLRLQPFNDRVYFSKWYLKGLRSSPARGGAFAQRFVNLDFRSYMKFLNWMPEALKMPEPELIDHAGLDSVVYLRIYWLGLKIFTPIAVLAWAVLVPVNWTNNTLEMAKQLRNVTSSDIDKLSVSNIPEYSMRFWTHIVMAYAFTIWTCYVLMKEYETIANMRLQFVASEARRPDQFTVLVRNVPPDADESVSELVEHFFLVNHPDHYLTHQVVCNANKLADLVKKKKKLQNWLDYYQLKYARNNSQRIMVKLGFLGLWGQKVDAIEHYIAEIDKISKEISKEREEVVNDPKAIMPAAFVSFKTRWAAAVCAQTQQTRNPTQWLTEWAPEPRDVFWSNLAIPYVSLTVRRLIMHVAFFFLTFFFIVPIAFVQSLATIEGIVKAAPFLKFIVDDKFMKSVIQGFLPGIALKLFLAFLPSILMIMSKFEGFTSISSLERRAAFRYYIFNLVNVFLASVIAGAAFEQLNSFLNQSANQIPKTIGVAIPMKATFFITYIMVDGWAGVAGEILMLKPLIMFHLKNAFLVKTDKDREEAMDPGSIGFNTGEPRIQLYFLLGLVYAPVTPMLLPFILVFFALAYIVYRHQIINVYNQEYESAAAFWPDVHGRVIAALVISQLLLMGLLGTKHAALAAPFLIALPVLTIGFHHFCKGRYEPAFIRYPLQEAMMKDTLETAREPNLNLKGYLQNAYVHPVFKGDEDDYDIDDKLGKFEDEAIIVPTKRQSRRNTPAPSIISGDDSPSLPFSGKLV
# notes: OSCA1.2 (alias CSC1), Arabidopsis thaliana, full length, 771 amino acids; Homodimer in the cryo-EM structure; 683 residues were modelled and the 54 carboxyl-terminal residues are missing from the model; also called CSC1; source: Sf-9 insect cells (baculovirus), purified (digitonin, Ni-NTA, Superose 6 SEC)
# Biological target: the molecule itself
# Test: cryo-EM structure; single-particle cryo-EM of purified AtOSCA1.2 in 25 mM HEPES pH 7.4, 150 mM NaCl, 0.1% digitonin; 3.68 Å
protein,measurement,value
B1,stoichiometry N,2
